Data reported in the DeepSol protein solubility set.

Assay: soluble on expression in E. coli; label from the status in PepcDB or PDB records

Question: Which “soluble on expression in E. coli” value does the source give for “MAGISIGVGSTDYTDLVNKMVNLEGAAKTNQLATLEKTTTTRLTALGQFKSAISAFQTALTALNSNAVFMARTAKSSNEDILKASATQSAVAGTYQIQVNSLATSSKIALQAIADPANAKFNSGTLNISVGDTKLPAITVDSSNNTLAGMRDAINQAGKEAGVSATIITDNSGSRLVLSSTKTGDGKDIKVEVSDDGSGGNTSLSQLAFDPATAPKLSDGAAAGYVTKAANGEITVDGLKRSIASNSVSDVIDGVSFDVKAVTEAGKPITLTVSRDDAGVKDNVKKFVEAYNTLTKFINEQTVVTKVGEDKNPVTGALLGDASVRALVNTMRSELIASNENGSVRNLAALGITTTKDGTLEIDEKKLDKAISADFEGVASYFTGDTGLAKRLGDKMKPYTDAQGILDQRTTTLQKTLSNVDTQKADLAKRLAALQEKLTTQFNLLSAMQDEMTKRQKSITDNLASLPYGSGKKT” here?
Answer: not soluble

Question: Which “soluble on expression in E. coli” value does the source give for “MSSISLKEIIPPQPSTQRNFTTHLSYDPTTNAIAYPCGKSAFVRCLDDGDSKVPPVVQFTGHGSSVVTTVKFSPIKGSQYLCSGDESGKVIVWGWTFDKESNSVEVNVKSEFQVLAGPISDISWDFEGRRLCVVGEGRDNFGVFISWDSGNSLGEVSGHSQRINACHLKQSRPMRSMTVGDDGSVVFYQGPPFKFSASDRTHHKQGSFVRDVEFSPDSGEFVITVGSDRKISCFDGKSGEFLKYIEDDQEPVQGGIFALSWLDSQKFATVGADATIRVWDVTTSKCVQKWTLDKQQLGNQQVGVVATGNGRIISLSLDGTLNFYELGHDEVLKTISGHNKGITALTVNPLISGSYDGRIMEWSSSSMHQDHSNLIVSLDNSKAQEYSSISWDDTLKVNGITKHEFGSQPKVASANNDGFTAVLTNDDDLLILQSFTGDIIKSVRLNSPGSAVSLSQNYVAVGLEEGNTIQVFKLSDLEVSFDLKTPLRAKPSYISISPSETYIAAGDVMGKILLYDLQSREVKTSRWAFRTSKINAISWKPAEKGANEEEIEEDLVATGSLDTNIFIYSVKRPMKIIKALNAHKDGVNNLLWETPSTLVSSGADACIKRWNVVLE” here?
Answer: soluble

Question: For “MGSDKIHHHHHHMKITQIRNATLQLEFGGKTFLIDPMLAPKATYPGFPGTANDHLRNPLVELPLPMATILDVDAVIVTHTHLDHWDDAAIKAIPKTMPIFSQNAQDADLIRRAGFISVRVLGEQMEYDGITLIKTAGQHGSDETYANPQLAERLGEVCGIVFQHANEKSFYLAGDTVWNQHVIDVLTDYSPDVVALNIGNAFIPSFGSIIMGKEDVRRVHQLVPNAAIVATHMEAVNHCLLSRAELRDYLHEEKLQSIAHVPNDGESVQF”, which “soluble on expression in E. coli” value is on record?
Answer: not soluble

Question: For “GHMKLKTKTMEWSGNSLKLLDQRKLPFIEEYVECKTHEEVAHAIKEMIVRGAPAIGVAAAFGYVLGLRDYKTGSLTDWMKQVKETLARTRPTAVNLFWALNRMEKVFFENADRENLFEILENEALKMAYEDIEVNKAIGKNGAQLIKDGSTILTHCNAGALATVDYGTALGVIRAAVESGKRIRVFADETRPYLQGARLTAWELMKDGIEVYVITDNMAGWLMKRGLIDAVVVGADRIALNGDTANKIGTYSLAVLAKRNNIPFYVAAPVSTIDPTIRSGEEIPIEERRPEEVTHCGGNRIAPEGVKVLNPAFDVTENTLITAIITEKGVIRPPFEENIKKILEVGS”, which “soluble on expression in E. coli” value is on record?
Answer: soluble

Question: Which “soluble on expression in E. coli” value does the source give for “MGSDKIHHHHHHATWITTLGGMDWPRNKAVNASGIRRQQKELCDILDRLKAANFNTVLLQTRLRGDMIYPSAIETFGESLTGSTGGNPGYDPLAFAIGECHKRGMELHAWIVTIPAGNTRQVQLQGRSSVVRKNRTICKLYKGNWYLDPGNPGTKEYLSCIVKEITSRYDIDGIHFDYIRYPEQADNFPDKDTYRKYGKGKELKQWRRDNITDIVHRLYTDIKTIKPWVKVSSSPIGKYRDTNRYPSRGWNAYHVVYQDAQKWLKEGIHDALFPMMYFQGNNFYPFALDWKENCGNRWIVPGLGIYFLSPDEQNWPLDEIVRQLHFTRQIKLNGQAYFRNRFLLNNTKGIWDELQENFYTTPALIPPMTWMDSIPPSTPAMPSLQLLPDGKMHMSWQISTDNNGGLVTYHLYASDTYPVDITDAGNLLETYLTHTEYEYTPISPWRQKRYFAVTAADRFGNESAPLELNAISETDMPLLNDGDILTLPEIKEAKTVKIFTVTGEEIKYFVYAPQMSIASLPGGFYTVYILNNAGAQTFVGTIVK” here?
Answer: not soluble

Question: For “MAALTKVKLCQLDDLMPFIGATVLIEGERVALFYIPDSGVYAVQDWDPIGKAYVMSRGIVGDINGEMCVASPLYKQHFSLKSGQCLEDEAHCLKTWRVTVDDNQVCYLAKELEHHHHHH”, which “soluble on expression in E. coli” value is on record?
Answer: soluble

Question: For “MAPTLAEAEKFLRNSKIDKIVLEKLAEILVTTMDDWNLIADQKVAESVWVVLTEAGRSGNLSENLGDGDVAKQLKSVFEKIRLRLQAQLGTIQWKNDELVDYDVTISKNNKSSLHADHTFQRVVLTLKVIPAGKMDVEALVVDFDEAQLNDFIWKLLEAKAMMDRIQKRVESR”, which “soluble on expression in E. coli” value is on record?
Answer: not soluble
